Source: paper PMC6330309, “Multispecific Antibody Development Platform Based on Human Heavy Chain Antibodies” (Frontiers in Immunology, 2018)

Target: T1, extracellular domain of human BCMA (Homo sapiens, UniProt Q02223)
T1 construct: B cell maturation antigen (BCMA), human, extracellular domain; PDB 4ZFO chain F was only the search model for molecular replacement; For the Octet experiments the methods say that antigens were either expressed in-house (ECD with His-tag) or commercially available
Experiment: crystal structure; BCMA and UniAb VH mixed at a 1:2 molar ratio for 20 min at 4°C, complex isolated by SEC (20 mM PBS, 250 mM NaCl); sitting drop vapor diffusion, 0.2 M sodium malonate pH 4.0, 20% PEG 3350; 2.6 Å; two complexes in the asymmetric unit
Conditions: both partners purified

T1 sequence (Q02223 1-54): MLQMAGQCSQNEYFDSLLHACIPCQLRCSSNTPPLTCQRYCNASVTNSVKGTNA

B1: anti-BCMA UniAb VH (IgHV3-23) (VHH)
VHH: EVQLVESGGGLVQPGGSLRLSCAASGFTVSSYGMSWVRQAPGKGPEWVSGIRGSDGSTYYADSVKGRFTISRDNSKNTLYLQMNSLRAEDTAVYYCAKQGENDGPFDHRGQGTLVTVS
notes: fully human VH single domain (IgHV3-23) from a UniRat heavy chain-only antibody, with R109 in framework 4 (W101R, Kabat); Human VH used as a single domain, no light chain and no Fc; also called UniAb VH (VH3-23)
binding result: binds
